Measurements from article PMC2647316 (Nucleic Acids Research, 2008).

What was measured:
Experiment in all cases: SPR
GkDnaC R330A = target: T1, GkDnaC R330A (Geobacillus kaustophilus HTA426, UniProt Q5KU75 1-454, R330A)
T1 sequence: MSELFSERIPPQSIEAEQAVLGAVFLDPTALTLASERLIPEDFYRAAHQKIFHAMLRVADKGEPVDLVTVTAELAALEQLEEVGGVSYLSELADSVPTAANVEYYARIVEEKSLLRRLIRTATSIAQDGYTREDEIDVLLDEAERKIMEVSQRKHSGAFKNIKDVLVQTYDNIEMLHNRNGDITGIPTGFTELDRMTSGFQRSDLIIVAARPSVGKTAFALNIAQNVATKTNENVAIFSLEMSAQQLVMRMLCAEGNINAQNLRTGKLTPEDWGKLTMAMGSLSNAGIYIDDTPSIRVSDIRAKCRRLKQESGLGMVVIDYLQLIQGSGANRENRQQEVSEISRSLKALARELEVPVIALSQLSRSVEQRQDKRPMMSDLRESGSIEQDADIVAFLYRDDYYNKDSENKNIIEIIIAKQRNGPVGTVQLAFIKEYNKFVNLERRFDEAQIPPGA

GkDnaC R332A = target: T2, GkDnaC R332A (Geobacillus kaustophilus HTA426, UniProt Q5KU75 1-454, R332A)
T2 sequence: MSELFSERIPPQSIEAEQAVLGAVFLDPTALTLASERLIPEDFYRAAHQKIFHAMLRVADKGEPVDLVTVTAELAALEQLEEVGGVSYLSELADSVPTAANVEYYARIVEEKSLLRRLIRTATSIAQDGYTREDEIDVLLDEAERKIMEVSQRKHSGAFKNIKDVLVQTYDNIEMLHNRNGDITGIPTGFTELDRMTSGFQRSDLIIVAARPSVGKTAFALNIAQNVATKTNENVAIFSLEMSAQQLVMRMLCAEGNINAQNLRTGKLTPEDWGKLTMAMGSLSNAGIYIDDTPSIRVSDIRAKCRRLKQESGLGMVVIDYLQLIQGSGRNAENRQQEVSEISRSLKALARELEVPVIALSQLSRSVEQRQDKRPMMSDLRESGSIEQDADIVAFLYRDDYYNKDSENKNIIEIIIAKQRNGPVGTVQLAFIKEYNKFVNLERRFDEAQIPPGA

GkDnaC R120A = target: T3, GkDnaC R120A (Geobacillus kaustophilus HTA426, UniProt Q5KU75 1-454, R120A)
T3 sequence: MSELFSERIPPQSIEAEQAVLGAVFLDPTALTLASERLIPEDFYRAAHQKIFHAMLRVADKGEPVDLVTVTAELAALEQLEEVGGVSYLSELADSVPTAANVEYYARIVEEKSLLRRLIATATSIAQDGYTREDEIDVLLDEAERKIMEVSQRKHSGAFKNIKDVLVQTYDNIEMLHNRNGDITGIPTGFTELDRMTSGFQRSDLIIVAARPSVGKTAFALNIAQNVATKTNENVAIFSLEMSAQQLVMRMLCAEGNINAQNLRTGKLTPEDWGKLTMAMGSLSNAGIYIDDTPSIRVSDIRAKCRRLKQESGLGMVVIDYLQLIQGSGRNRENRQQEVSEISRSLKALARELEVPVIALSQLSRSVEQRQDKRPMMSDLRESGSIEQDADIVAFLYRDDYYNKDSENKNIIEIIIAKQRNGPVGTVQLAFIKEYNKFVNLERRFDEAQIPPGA

GkDnaC K50A = target: T4, GkDnaC K50A (Geobacillus kaustophilus HTA426, UniProt Q5KU75 1-454, K50A)
T4 sequence: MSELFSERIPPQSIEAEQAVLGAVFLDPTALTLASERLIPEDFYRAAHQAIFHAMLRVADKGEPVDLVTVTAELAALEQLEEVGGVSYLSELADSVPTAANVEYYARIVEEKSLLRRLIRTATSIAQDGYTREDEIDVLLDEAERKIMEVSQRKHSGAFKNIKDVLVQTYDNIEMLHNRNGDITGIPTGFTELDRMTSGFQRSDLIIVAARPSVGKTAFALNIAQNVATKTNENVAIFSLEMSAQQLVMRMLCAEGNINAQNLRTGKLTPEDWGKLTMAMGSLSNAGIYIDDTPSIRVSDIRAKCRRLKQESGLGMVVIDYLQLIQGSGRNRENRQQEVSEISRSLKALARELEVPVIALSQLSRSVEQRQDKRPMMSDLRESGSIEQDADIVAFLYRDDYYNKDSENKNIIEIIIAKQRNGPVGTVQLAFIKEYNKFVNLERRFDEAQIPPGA

B1: 5'Bio-(dT)30 (ssDNA)
DNA: TTTTTTTTTTTTTTTTTTTTTTTTTTTTTT
In the case of B1, the Kd (GkDnaC R330A) is reported as 17.8 µM, the Kd (GkDnaC R332A) is reported as 6.64 µM and the Kd (GkDnaC R120A) is reported as 1.73 µM. For the same binder, the Kd (GkDnaC K50A) was 1.41 µM.
